In PMC8239462, “Molecular chaperone RAP interacts with LRP1 in a dynamic bivalent mode and enhances folding of ligand-binding regions of other LDLR family receptors” (The Journal of Biological Chemistry, 2021):
“And” between values parts separate entries of the source, which are not always exact repeats. Equal entries are not always repeated.

B4: RAP (commercial; R&D, 4296-LR) (natural protein, human)
chain: YSREKNQPKPSPKRESGEEFRMEKLNQLWEKAQRLHLPPVRLAELHADLKIQERDELAWKKLKLDGLDEDGEKEARLIRNLNVILAKYGLDGKKDARQVTSNSLSGTQEDGLDDPRLEKLWHKAKTSGKFSGEELDKLWREFLHHKEKVHEYNVLLETLSRTEEIHENVISPSDLSDIKGSVLHSRHTELKEKLRSINQGLDRLRRVSHQGYSTEAEFEEPRVIDLWDLAQSANLTDKELEAFREELKHFEAKIEKHNHYQKQLEIAHEKLRHAESVGDGERVSRSREKHALLEGRTKELGYTVKKHLQDLSGRISRARHNEL
notes: RAP (LDL-receptor related protein-associated protein), commercial preparation; also called receptor-associated protein; LDL-receptor related protein-associated protein; source: bought: R&D (4296-LR)

How the values were obtained:
Conditions in all cases: both partners purified
[1] = target: B4; test: SPR; Biacore T200; receptor fragment COEXPRESSED with RAP (RAP+; for the LRP1 clusters RAP without HTEL; RAP washed off during purification), monomer, amine-coupled to CM5 at ~250 RU; RAP (0.08–20 nM), FVIII (0.8–200 nM) or ApoE3 (0.78–200 nM) in flow, 30 ul/min, contact 180 s; HBS-P Ca2+ pH 7.4; KD from the steady-state affinity model
[2] = target: T1, recombinant Factor VIII (Advate) (UniProt P00451 20-2351); test: SPR; Biacore T200; LRP1 cluster II coexpressed with RAP having the HTEL signal (RAP-HTEL+), monomer, amine-coupled to CM5 at ~250 RU; RAP (0.08–20 nM) or FVIII (0.8–200 nM) in flow; HBS-P Ca2+ pH 7.4; KD from the steady-state affinity model
T1 construct: blood coagulation factor VIII, recombinant drug product Advate; also called FVIII; blood coagulation factor VIII; source: bought: Advate
T1 sequence (P00451 20-2351): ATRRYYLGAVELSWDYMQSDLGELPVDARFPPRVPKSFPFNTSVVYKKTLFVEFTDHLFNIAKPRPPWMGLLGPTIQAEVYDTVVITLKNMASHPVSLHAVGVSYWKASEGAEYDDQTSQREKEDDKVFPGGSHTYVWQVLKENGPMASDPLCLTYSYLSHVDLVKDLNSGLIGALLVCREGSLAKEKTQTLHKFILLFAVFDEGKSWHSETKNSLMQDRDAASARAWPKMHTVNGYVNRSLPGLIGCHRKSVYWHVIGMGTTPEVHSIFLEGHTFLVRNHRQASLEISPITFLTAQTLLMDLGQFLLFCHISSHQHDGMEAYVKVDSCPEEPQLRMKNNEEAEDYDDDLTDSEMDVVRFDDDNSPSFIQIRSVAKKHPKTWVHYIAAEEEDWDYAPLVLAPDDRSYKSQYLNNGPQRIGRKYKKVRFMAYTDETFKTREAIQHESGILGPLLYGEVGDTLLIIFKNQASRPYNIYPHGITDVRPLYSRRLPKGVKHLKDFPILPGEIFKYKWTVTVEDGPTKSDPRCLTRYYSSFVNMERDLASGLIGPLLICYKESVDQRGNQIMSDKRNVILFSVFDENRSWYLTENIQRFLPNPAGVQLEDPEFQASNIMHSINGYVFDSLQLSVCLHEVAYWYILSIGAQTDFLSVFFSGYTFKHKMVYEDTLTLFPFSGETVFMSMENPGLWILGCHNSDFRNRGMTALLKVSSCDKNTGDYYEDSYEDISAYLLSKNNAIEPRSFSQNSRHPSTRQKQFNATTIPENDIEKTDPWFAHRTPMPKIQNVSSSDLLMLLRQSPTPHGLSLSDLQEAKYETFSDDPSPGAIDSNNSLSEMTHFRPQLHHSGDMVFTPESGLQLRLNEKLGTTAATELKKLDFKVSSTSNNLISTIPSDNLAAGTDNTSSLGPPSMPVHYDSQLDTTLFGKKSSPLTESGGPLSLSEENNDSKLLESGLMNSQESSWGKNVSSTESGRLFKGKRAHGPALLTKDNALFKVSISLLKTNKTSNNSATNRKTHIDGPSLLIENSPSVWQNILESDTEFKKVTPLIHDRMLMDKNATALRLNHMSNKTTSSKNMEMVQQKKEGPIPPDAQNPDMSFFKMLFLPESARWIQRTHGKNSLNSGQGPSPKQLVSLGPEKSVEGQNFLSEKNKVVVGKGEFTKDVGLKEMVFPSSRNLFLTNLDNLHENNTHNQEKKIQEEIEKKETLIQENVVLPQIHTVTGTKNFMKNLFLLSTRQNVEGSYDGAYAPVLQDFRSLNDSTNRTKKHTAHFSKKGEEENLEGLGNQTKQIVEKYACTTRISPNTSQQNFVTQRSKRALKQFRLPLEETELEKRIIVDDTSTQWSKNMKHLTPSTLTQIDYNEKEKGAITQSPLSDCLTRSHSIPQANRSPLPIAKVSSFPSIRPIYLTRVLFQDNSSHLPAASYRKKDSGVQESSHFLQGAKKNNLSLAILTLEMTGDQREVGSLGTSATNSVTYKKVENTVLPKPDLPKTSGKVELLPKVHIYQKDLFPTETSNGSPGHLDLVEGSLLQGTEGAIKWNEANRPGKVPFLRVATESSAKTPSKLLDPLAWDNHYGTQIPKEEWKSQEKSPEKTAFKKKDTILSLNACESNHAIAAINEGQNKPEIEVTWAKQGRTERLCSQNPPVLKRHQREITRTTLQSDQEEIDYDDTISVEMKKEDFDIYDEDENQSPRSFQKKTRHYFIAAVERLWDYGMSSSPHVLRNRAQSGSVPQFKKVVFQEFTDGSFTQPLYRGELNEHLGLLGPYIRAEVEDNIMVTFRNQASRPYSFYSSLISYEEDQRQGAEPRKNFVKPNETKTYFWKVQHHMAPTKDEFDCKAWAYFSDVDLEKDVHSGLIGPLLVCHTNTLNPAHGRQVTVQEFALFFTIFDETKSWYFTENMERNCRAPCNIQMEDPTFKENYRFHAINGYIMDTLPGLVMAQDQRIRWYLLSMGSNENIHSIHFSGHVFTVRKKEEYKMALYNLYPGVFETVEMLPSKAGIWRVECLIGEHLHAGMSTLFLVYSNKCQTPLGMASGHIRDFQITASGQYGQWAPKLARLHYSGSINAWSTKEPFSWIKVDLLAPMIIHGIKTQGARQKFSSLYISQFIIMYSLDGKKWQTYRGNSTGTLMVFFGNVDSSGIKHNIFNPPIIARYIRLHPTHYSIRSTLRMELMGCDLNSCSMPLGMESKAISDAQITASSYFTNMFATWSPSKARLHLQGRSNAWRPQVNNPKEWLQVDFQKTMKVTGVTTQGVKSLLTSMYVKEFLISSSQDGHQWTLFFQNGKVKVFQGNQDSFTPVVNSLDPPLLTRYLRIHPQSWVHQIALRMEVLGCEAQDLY

[3] = target: T1, recombinant Factor VIII (Advate); test: SPR; Biacore T200; receptor fragment expressed WITHOUT RAP (RAP−), monomer, amine-coupled to CM5 at ~250 RU; RAP (0.08–20 nM), FVIII (0.8–200 nM) or ApoE3 (0.78–200 nM) in flow, 30 ul/min, contact 180 s; HBS-P Ca2+ pH 7.4 (10 mM HEPES, 150 mM NaCl, 5 mM CaCl2, 0.005% Tween-20); KD from the steady-state affinity model
[4] = target: T1, recombinant Factor VIII (Advate); test: SPR; Biacore T200; receptor fragment COEXPRESSED with RAP (RAP+; for the LRP1 clusters RAP without HTEL; RAP washed off during purification), monomer, amine-coupled to CM5 at ~250 RU; RAP (0.08–20 nM), FVIII (0.8–200 nM) or ApoE3 (0.78–200 nM) in flow, 30 ul/min, contact 180 s; HBS-P Ca2+ pH 7.4; KD from the steady-state affinity model
[5] = target: T1, recombinant Factor VIII (Advate); test: SPR; Biacore T200; commercial LRP1 cluster Fc chimeras (R&D) amine-coupled to CM5 at ~250 RU; RAP (0.08–20 nM) or FVIII (0.8–200 nM) in flow; HBS-P Ca2+ pH 7.4; KD from the steady-state affinity model
[6] = target: T2, LRP1 cluster III, recombinant, secreted from Sf9 cells (human, UniProt Q07954 2522-2940); test: SPR; Biacore T200; receptor fragment COEXPRESSED with RAP (RAP+; for the LRP1 clusters RAP without HTEL; RAP washed off during purification), monomer, amine-coupled to CM5 at ~250 RU; RAP (0.08–20 nM), FVIII (0.8–200 nM) or ApoE3 (0.78–200 nM) in flow, 30 ul/min, contact 180 s; HBS-P Ca2+ pH 7.4; KD from the steady-state affinity model
T2 construct: also called cluster III (RAP+); cluster III (RAP−)
T2 sequence (Q07954 2522-2940): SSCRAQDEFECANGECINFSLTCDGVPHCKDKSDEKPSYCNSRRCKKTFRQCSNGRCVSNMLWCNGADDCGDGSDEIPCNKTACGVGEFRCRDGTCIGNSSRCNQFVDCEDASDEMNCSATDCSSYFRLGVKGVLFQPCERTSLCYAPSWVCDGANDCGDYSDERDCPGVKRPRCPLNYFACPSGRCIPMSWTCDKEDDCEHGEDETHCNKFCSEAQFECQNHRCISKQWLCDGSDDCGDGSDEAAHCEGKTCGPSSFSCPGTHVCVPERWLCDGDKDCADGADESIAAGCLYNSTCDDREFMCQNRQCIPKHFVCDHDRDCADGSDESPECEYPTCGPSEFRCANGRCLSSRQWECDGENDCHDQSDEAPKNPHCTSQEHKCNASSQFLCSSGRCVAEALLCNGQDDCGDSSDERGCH

[7] = target: B4; test: SPR; Biacore T200; receptor fragment expressed WITHOUT RAP (RAP−), monomer, amine-coupled to CM5 at ~250 RU; RAP (0.08–20 nM), FVIII (0.8–200 nM) or ApoE3 (0.78–200 nM) in flow, 30 ul/min, contact 180 s; HBS-P Ca2+ pH 7.4 (10 mM HEPES, 150 mM NaCl, 5 mM CaCl2, 0.005% Tween-20); KD from the steady-state affinity model

B1: LRP1 CR.6–8 triplet coexpressed with RAP (RAP+) (domain or fragment)
chain: not shown
notes: human LRP1 complement-type repeats 6–8 (cluster II); also called LRP1 CR; 6–8 (RAP+); source: Sf9, baculovirus (pFastBac-Dual), coexpressed with RAP; purified (HisTrap Excel, Superdex 75, monomer peak)
[1]
  Kd: 2.8 nM

B2: LRP1 cluster II (CR.3–10), recombinant, secreted from Sf9 cells (domain or fragment)
chain: PQCQPGEFACANSRCIQERWKCDGDNDCLDNSDEAPALCHQHTCPSDRFKCENNRCIPNRWLCDGDNDCGNSEDESNATCSARTCPPNQFSCASGRCIPISWTCDLDDDCGDRSDESASCAYPTCFPLTQFTCNNGRCININWRCDNDNDCGDNSDEAGCSHSCSSTQFKCNSGRCIPEHWTCDGDNDCGDYSDETHANCTNQATRPPGGCHTDEFQCRLDGLCIPLRWRCDGDTDCMDSSDEKSCEGVTHVCDPSVKFGCKDSARCISKAWVCDGDNDCEDNSDEENCESLACRPPSHPCANNTSVCLPPDKLCDGNDDCGDGSDEGELC
notes: also called LRP1 cluster II (8 CRs); cluster II (RAP−)
[2]
  Kd: 37 nM
[3]
  Kd: 244 nM and 192 nM
[4]
  Kd: 25 nM and 42 nM

B3: recombinant human LRP-1 cluster II Fc chimera protein (R&D, 2368-L2) (Fc fusion, UniProt Q07954 852-1182, looked up)
chain: PQCQPGEFACANSRCIQERWKCDGDNDCLDNSDEAPALCHQHTCPSDRFKCENNRCIPNRWLCDGDNDCGNSEDESNATCSARTCPPNQFSCASGRCIPISWTCDLDDDCGDRSDESASCAYPTCFPLTQFTCNNGRCININWRCDNDNDCGDNSDEAGCSHSCSSTQFKCNSGRCIPEHWTCDGDNDCGDYSDETHANCTNQATRPPGGCHTDEFQCRLDGLCIPLRWRCDGDTDCMDSSDEKSCEGVTHVCDPSVKFGCKDSARCISKAWVCDGDNDCEDNSDEENCESLACRPPSHPCANNTSVCLPPDKLCDGNDDCGDGSDEGELC
notes: human LRP1 cluster II of the bought Fc chimera; also called commercial LRP1 cluster II; source: bought: R&D (2368-L2)
[5]
  Kd: 450 nM

## B4
[6]
  Kd: 2 nM

B5: LRP1 CR.7–8 doublet (coexpression study) (domain or fragment)
chain: not shown
notes: human LRP1 complement-type repeats 7–8 (cluster II); also called LRP1 CR.7–8 (RAP+); LRP1 CR.7–8 (RAP−); source: Sf9, baculovirus (pFastBac-Dual), expressed without RAP or coexpressed with RAP; purified (HisTrap Excel, Superdex 75, monomer peak)
[1]
  Kd: 3.1 nM

B6: LRP1 CR.7 singlet (domain or fragment)
chain: not shown
notes: human LRP1 complement-type repeat 7 (cluster II); also called LRP1 CR.7 (RAP+); LRP1 CR.7 (RAP−); source: Sf9, baculovirus (pFastBac-Dual), expressed without RAP or coexpressed with RAP; purified (HisTrap Excel, Superdex 75, monomer peak)
[7]
  Kd: 43.7 nM
[1]
  Kd: 34.9 nM

B7: LRP1 CR.6–8 triplet expressed without RAP (RAP−) (domain or fragment)
chain: not shown
notes: human LRP1 complement-type repeats 6–8 (cluster II); also called LRP1 CR.6–8 (RAP−); source: Sf9, baculovirus (pFastBac-Dual), expressed without RAP; purified (HisTrap Excel, Superdex 75, monomer peak)
[7]
  Kd: 2.9 nM

B8: LRP1 CR.6–7 doublet (coexpression study) (domain or fragment)
chain: not shown
notes: human LRP1 complement-type repeats 6–7 (cluster II); also called LRP1 CR; 6–7 (RAP+); LRP1 CR 6–7 (RAP−); source: Sf9, baculovirus (pFastBac-Dual), expressed without RAP or coexpressed with RAP; purified (HisTrap Excel, Superdex 75, monomer peak)
[7]
  Kd: 3.9 nM
[1]
  Kd: 3.8 nM
